# Results: IntAct's records for PubMed 19805276
# B1: Stage IV sporulation protein FB (Bacillus subtilis), P26937 (parent)
# chain: MNKWLDLILKIHVHPFLWIIAALGLLTGHMKALLCLLLIVLIHELGHAALAVFFSWRIKRVFLLPFGGTVEVEEHGNRPLKEEFAVIIAGPLQHIWLQFAAWMLAEVSVIHQHTFELFTFYNLSILFVNLLPIWPLDGGKLLFLLFSKQLPFQKAHRLNLKTSLCFCLLLGCWVLFVIPLQISAWVLFVFLAVSLFEEYRQRHYIHVRFLLERYYGKNRELEKLLPLTVKAEDKVYHVMAEFKRGCKHPIIIEKSGQKLSQLDENEVLHAYFADKRTNSSMEELLLPY
# partner: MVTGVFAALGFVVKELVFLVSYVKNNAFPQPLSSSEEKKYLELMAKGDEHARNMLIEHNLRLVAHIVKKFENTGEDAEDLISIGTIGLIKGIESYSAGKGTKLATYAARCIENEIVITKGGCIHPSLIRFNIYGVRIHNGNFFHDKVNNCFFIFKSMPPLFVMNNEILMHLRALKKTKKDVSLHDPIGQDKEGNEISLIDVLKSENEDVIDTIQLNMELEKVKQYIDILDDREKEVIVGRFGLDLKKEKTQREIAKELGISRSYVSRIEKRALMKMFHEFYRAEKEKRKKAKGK
# Variants of: B1
# Details: with rpsk_bacsu sigK
row,Variant,effect of a mutation on the interaction
1,E44Q,disrupting interaction
